Assay results from patent US9724426B2, “Agents, uses and methods” (AFFINICON APS, priority 2009, dated 2017).

Legend:
[1] = target: recombinant CD163 immobilized on a Biacore chip (Homo sapiens, UniProt Q86VB7); test: Surface plasmon resonance (Biacore) analysis of mAb binding to immobilized CD163; details: 5 μg/ml
Method: SPR analysis of the binding of mAbs to CD163 was carried out on a Biacore 2000 instrument (Biacore, Uppsala, Sweden). The Biacore sensor chips (type CM5) were activated with a 1:1 mixture of 0.2 M N-ethyl-N′-(3-dimethylaminopropyl) carbodiimide and 0.05 M N-hydroxysuccimide in water. Purified recombinant CD163 were immobilized in 10 mM sodium acetate, pH 4.0, and the remaining binding sites were blocked with 1 M ethanolamine, pH 8.5. The SPR signal generated from immobilized recombinant CD163 proteins corresponded to 40-70 fmol of protein/mm^2. Sensorgrams were generated using mAb concentrations ranging from 5-100 nM. The flow cells were regenerated with 1.6 M glycine-HCl, pH 3. The running buffer used for the experiment was either CaHBS 10 mM Hepes, 150 mM NaCl, 3.0 mM CaCl2, 1.0 mM EGTA, and 0.005% Tween 20, pH 7.4. or 10 mM Hepes, 150 mM NaCl, 3.0 mM EDTA, and 0.005% Tween 20, pH 7.4, mAb samples were dissolved in the same buffer as the running buffer used. All binding data were analyzed using the Biamolecular Interaction Analysis evaluation program version 3.1.
SPR analysis of the binding of mAbs to CD163 was carried out on a Biacore 2000 instrument (Biacore, Uppsala, Sweden). […] All binding data were analyzed using the Biamolecular Interaction Analysis evaluation program version 3.1.

[2] = target: T1, CD163 on peripheral blood dendritic cells (Homo sapiens, UniProt Q86VB7); test: Flow cytometry of CD163 expression on peripheral blood dendritic cells; type: cell-based; details: CD14-ILT3+HLA-DR+ dendritic cells
T1 construct: endogenous in cells; host or cells: human peripheral blood monocytes, monocyte-derived macrophages, blood dendritic cells
From the text: Freshly drawn peripheral whole blood samples (approx. 3×10^6 cells) were stained with isotype-matched control antibody (Mouse IgG1 PE, k isotype control, MOPC-21, BD Pharmingen™, San Diego, Calif., USA) or a relevant antibody (anti-CD3 FITC, UCHT1, BD Biosciences, San Diego, Calif., USA; anti-CD11c FITC, KB90, DAKO A/S, Glostrup, Denmark; anti-CD14 FITC, RMO52, IOTests®, Beckman and Coulter, Marseille, France; anti-CD16 FITC, 3G8, BD Biosciences, San Diego, Calif., USA; anti-CD19 FITC, SJ25C1, BD Biosciences, San Diego, Calif., USA; anti-CD20 FITC, CAT 13.6E12, Diatec.com A/S, Oslo, Norway; anti-CD56 FITC, NCAM16.2, BD Biosciences, San Diego, Calif., USA; anti-CD91 FITC, A2MR-a2, BD Biosciences, San Diego, Calif.; anti-HLA-DR FITC, EDU-1, Diatec.com A/S, Oslo, Norway; anti-CD163 PE, MAC2-158, IQ Products, Groningen, The Netherlands; anti-CD163 PE, GHI/61, BD Biosciences, CA, USA; anti-ILT3/CD85k PE-Cy5, ZM3.8, IOTests®, Beckman and Coulter, Marseille, France; anti-HLA-DR PerCP, L234, BD Biosciences, San Diego, Calif.; anti-CD4 APC, EDU-2, Diatec.com A/S, Oslo, Norway; anti-CD14 APC, 18D11, Diatec.com A/S, Oslo, Norway) for 15 minutes at room temperature in the dark. […] For CD163 density quantitation, flow cytometric estimation of antibodies bound/cell (ABCs) was performed using Quantibrite PE beads (Becton Dickinson, San Jose, Calif., USA) as recommended by the manufacturer. […]

recombinant CD163 immobilized on a Biacore chip, sequence (Q86VB7 42-1156): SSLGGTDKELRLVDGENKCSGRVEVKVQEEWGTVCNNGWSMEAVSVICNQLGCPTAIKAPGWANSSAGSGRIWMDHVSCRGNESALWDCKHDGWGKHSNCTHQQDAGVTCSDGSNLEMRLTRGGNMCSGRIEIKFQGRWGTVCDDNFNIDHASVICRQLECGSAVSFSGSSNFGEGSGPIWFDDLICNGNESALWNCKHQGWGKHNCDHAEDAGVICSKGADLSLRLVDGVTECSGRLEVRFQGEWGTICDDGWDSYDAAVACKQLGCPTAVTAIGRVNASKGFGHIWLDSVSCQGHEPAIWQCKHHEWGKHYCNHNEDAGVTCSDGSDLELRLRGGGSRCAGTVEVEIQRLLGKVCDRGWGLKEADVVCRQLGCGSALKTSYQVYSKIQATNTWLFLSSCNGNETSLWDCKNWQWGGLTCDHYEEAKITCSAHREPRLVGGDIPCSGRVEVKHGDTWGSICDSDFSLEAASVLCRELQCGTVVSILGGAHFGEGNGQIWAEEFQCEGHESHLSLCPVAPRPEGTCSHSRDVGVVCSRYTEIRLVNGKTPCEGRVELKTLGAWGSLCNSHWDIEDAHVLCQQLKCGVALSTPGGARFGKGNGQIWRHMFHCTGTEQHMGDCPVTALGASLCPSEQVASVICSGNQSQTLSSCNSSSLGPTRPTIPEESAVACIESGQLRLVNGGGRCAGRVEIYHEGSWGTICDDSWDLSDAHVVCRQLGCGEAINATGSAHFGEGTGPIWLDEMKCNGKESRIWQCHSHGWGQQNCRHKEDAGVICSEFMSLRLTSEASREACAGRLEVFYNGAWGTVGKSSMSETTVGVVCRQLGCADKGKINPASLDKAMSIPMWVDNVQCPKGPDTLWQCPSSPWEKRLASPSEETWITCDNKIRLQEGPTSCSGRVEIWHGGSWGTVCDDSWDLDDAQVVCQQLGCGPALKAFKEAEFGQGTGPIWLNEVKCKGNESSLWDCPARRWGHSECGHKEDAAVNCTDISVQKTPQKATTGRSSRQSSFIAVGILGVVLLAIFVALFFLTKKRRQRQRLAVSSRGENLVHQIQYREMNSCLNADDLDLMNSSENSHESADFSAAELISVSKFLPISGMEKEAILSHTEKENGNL
T1 sequence (Q86VB7 42-1156): as above

B1: Mac2-158: murine anti-human CD163 mAb binding SRCR domain 1; VH SEQ ID NO:20, VL SEQ ID NO:21; IQ Products (antibody, V domains shown)
VH: DVQLQESGPGLVKPSQSLSLTCTVTGYSITSDYAWNWIRQFPGNKLEWMGYITYSGITNYNPSLKSQISITRDTSKNQFFLQLNSVTTEDTATYYCVSGTYYFDYWGQGTTLTVSS
VL: SVVMTQTPKSLLISIGDRVTITCKASQSVSSDVAWFQQKPGQSPKPLIYYASNRYTGVPDRFTGSGYGTDFTFTISSVQAEDLAVYFCGQDYTSPRTFGGGTKLEIKRA
modifications: Mac2-158 VH sequence; Mac2-158 VL sequence
notes: IQ Products
affinity for human CD163, KN2/NRY compared with Mac2-158 [1]: Virtually similar affinities
fraction of peripheral blood dendritic cells recognized as CD163 expressing [2]: 32.3%
